Columns and labels:
Test in all cases: EC50 of free RNA motif oligo competing protein binding to immobilised probe
HNRNPAB = HNRNPAB (UniProt Q99729)
In short: (§1)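 HEK293-FT lysate (2.5 mg protein/well) was treated with free RNA oligos (0 nM to 30 μM) for 1 h at 4°C, then with the same oligos on NHS-Sepharose beads for 30 min at 4°C. Bound proteins were quantified by label-free LC-MS/MS relative to the control. EC50 came from a four-parameter log-logistic fit, and Kd is EC50 times a protein-dependent depletion factor.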

RBM7 = molecular target: T1, RBM7 (UniProt Q9Y580)
T1 sequence: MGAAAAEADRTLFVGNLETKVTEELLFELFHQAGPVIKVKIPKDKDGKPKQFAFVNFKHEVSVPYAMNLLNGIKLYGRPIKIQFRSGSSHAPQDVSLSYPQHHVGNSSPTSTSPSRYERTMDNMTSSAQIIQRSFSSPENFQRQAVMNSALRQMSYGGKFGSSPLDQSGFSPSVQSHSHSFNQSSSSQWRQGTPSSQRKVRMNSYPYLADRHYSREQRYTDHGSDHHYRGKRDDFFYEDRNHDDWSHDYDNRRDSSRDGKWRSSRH
In short: as §1

DAZAP1 = molecular target: T2, DAZAP1 (UniProt Q96EP5)
T2 sequence: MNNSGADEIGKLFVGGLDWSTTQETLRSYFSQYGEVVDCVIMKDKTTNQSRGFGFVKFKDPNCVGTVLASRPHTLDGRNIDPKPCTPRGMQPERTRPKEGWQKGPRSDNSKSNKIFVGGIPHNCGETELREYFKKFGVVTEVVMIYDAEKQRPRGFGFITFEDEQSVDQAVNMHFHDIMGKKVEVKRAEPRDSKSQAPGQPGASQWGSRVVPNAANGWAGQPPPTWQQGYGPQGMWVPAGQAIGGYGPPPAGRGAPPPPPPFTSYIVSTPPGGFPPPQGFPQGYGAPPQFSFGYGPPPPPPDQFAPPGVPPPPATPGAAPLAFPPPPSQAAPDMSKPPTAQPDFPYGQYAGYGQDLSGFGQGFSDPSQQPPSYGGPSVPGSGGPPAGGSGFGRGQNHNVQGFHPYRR
In short: as §1

KHSRP = molecular target: T3, KHSRP (UniProt Q92945)
T3 sequence: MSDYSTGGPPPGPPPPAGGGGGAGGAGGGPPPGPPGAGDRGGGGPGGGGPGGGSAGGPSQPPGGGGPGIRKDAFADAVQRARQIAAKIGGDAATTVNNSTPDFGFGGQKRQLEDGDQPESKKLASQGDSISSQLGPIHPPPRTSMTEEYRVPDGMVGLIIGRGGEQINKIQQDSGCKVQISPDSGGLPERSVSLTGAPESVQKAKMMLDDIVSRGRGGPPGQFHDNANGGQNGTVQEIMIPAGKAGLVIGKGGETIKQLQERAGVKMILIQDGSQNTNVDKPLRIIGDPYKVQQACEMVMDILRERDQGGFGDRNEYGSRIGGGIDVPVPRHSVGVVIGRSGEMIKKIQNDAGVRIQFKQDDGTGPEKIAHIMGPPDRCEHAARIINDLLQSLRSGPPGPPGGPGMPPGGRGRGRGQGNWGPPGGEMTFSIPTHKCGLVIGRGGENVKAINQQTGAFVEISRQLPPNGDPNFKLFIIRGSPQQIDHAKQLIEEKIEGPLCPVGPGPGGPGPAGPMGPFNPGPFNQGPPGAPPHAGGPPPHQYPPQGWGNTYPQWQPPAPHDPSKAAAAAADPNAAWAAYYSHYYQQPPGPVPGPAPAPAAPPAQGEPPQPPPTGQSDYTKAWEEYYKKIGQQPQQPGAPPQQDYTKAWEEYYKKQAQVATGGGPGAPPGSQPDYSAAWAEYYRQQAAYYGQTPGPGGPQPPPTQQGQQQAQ
In short: as §1

CSTF2 = molecular target: T4, CSTF2 (UniProt P33240)
T4 sequence: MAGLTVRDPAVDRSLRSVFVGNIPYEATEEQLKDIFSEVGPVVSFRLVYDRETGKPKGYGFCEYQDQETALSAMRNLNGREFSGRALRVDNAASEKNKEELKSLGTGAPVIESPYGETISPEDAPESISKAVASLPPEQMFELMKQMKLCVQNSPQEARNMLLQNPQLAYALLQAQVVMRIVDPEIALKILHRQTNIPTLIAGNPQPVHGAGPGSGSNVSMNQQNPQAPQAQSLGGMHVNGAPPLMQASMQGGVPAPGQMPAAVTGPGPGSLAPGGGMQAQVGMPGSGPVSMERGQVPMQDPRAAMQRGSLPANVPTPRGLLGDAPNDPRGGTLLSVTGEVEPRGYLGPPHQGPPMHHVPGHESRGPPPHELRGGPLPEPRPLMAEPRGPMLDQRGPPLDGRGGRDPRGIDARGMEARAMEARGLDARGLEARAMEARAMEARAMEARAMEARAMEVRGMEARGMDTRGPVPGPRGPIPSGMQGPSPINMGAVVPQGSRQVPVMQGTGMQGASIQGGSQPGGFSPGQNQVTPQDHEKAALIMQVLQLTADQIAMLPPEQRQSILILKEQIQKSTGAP
In short: as §1

XRN1 = XRN1 (UniProt Q8IZH2)
In short: as §1

RBM4 = molecular target: T5, RBM4 (UniProt Q9BWF3)
T5 sequence: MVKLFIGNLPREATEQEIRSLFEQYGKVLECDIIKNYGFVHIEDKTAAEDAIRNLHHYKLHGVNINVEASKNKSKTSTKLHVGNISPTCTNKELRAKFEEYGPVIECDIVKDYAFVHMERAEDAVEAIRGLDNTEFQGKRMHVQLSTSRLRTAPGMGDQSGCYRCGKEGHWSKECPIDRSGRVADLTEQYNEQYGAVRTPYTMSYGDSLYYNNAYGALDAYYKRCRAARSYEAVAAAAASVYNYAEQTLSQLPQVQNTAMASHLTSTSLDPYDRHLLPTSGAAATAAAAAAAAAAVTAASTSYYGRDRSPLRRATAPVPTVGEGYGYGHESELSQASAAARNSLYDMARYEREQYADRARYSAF
In short: as §1

SLIRP = SLIRP (UniProt Q9GZT3)
In short: as §1

Chain of XRN1 (Q8IZH2 whole entry): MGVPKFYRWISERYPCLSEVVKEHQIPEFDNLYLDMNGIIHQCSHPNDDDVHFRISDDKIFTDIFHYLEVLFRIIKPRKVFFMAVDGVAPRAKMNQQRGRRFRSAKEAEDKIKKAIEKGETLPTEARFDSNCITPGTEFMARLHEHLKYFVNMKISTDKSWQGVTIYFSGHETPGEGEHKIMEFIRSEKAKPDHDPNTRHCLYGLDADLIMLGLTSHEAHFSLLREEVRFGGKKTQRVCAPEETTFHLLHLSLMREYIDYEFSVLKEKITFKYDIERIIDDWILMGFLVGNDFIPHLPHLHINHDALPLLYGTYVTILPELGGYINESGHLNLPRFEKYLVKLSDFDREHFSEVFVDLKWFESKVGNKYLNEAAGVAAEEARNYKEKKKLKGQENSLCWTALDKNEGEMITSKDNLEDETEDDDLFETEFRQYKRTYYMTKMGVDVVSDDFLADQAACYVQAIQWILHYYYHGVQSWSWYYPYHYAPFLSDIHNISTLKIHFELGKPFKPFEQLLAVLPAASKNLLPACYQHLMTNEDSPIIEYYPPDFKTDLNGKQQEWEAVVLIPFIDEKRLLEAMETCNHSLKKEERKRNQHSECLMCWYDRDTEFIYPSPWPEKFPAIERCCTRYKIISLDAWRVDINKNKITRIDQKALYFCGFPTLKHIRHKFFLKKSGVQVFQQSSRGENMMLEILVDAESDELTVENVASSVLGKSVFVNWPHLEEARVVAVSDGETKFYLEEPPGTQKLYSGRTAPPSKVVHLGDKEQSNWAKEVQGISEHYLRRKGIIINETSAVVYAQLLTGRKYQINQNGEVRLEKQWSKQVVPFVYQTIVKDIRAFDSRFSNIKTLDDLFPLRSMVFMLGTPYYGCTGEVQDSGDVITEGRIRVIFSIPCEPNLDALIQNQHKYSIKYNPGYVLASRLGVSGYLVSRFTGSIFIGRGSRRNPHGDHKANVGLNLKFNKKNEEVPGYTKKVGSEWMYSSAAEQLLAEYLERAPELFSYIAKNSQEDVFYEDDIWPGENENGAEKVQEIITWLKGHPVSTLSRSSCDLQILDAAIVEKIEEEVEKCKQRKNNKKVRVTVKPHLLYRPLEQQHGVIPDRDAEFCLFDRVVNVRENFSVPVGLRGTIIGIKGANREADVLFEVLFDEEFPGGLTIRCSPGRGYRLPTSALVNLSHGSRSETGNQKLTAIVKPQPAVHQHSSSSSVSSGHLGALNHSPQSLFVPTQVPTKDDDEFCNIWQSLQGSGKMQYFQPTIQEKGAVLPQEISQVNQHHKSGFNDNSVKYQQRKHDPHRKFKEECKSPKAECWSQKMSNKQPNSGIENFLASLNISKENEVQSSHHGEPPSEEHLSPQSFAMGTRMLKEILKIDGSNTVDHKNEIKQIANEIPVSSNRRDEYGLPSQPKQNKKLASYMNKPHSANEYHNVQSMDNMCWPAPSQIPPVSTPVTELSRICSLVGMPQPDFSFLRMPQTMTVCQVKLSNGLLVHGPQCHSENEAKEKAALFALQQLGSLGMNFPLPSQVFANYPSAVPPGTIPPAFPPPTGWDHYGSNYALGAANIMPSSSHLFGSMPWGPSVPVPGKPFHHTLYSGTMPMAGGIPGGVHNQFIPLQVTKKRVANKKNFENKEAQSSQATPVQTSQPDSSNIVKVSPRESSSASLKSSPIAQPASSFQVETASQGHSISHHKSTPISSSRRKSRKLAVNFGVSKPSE
Chain of HNRNPAB (Q99729 whole entry): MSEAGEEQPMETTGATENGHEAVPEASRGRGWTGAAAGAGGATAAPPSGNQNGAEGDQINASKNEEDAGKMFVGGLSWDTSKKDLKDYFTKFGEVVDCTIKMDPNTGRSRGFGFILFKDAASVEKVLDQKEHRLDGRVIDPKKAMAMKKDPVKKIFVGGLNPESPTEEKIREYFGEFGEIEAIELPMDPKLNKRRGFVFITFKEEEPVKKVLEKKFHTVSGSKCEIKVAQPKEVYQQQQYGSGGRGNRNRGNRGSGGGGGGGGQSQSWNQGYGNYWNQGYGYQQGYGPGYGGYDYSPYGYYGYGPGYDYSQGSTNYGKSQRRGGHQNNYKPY

Row | Sequence | EC50 (HNRNPAB) [µM] | EC50 (RBM7) [µM] | EC50 (DAZAP1) [µM] | EC50 (KHSRP) [µM] | EC50 (CSTF2) [µM] | EC50 (XRN1) [µM] | EC50 (RBM4) [µM] | EC50 (SLIRP) [µM]
1 | UAUUUAU | 3.09 | 0.312 | 1.22 | 1.73 | 0.463 | 0.196 | – | –
2 | CUGUCCU | – | – | – | – | – | – | 0.371 | 1.53
3 | AAUAAA | 3.01 | 1.93 | 1.24 | 2.22 | 0.0839 | 0.44 | 4.16 | 1.58
